From the supplement of paper PMC9732359
± gives the uncertainty stated by the source.

Test: protein stability index of a GFP-peptide fusion (yeast GPS) (PSI 1-4); higher = more stable; sorted into four equal gates, so the index is relative within each strain
Details: pdr5∆
Outline: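 Mid-log yeast cultures in leucine-free medium, carrying a pooled plasmid library, were sorted into four equal gates by their GFP/Cherry fluorescence ratio. Each plasmid expressed Cherry along with GFP fused upstream of a tiled 17-residue yeast protein peptide. Plasmids recovered from each gate were PCR-amplified and Illumina-sequenced, with reads assigned to strains by barcodes. The protein stability index was obtained by summing each gate's read frequency weighted by its gate number.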
In the case of LELVNTPLTENILIASL [YCG1], the protein stability index is reported as 1.62 ± 0.042. Work on LEMLKPCVEDGFVIQDR [RPB2] yielded a protein stability index of 3.29 ± 0.12. Work on LEQFMERNNIGEICKNY [YDL116W/NUP84] yielded a protein stability index of 2.6 ± 0.076. LEQMELSILKGDYSQAT [RPN5] gave a protein stability index of 2.91 ± 0.068. Work on LESWWLVLGEVSKKELY [BRR2] yielded a protein stability index of 1.39 ± 0.14. For LFGAKPQNTTATTGGLF [YGR119C/NUP57], the protein stability index was 3.06 ± 0.076. For LFGMCESLYEPNLEPED [PUP3], the protein stability index was 3.53 ± 0.2. For LFHFEEDEGEELTDEYL [PRP8], the protein stability index was 3.01 ± 0.09. LFKALKVILNERGGKFH [RGR1] showed a protein stability index of 2.64 ± 0.068. LFKKFNNDFKLSIDKVL [RET1] showed a protein stability index of 1.8 ± 0.11. Sequence LFKRDCNQMENLLESIT [YCS4] has a protein stability index of 2.17 ± 0.12. LFLIIQCYKIYDLVILK [YMR129W/POM152] showed a protein stability index of 1.2 ± 0.045. In the case of LFLRGDSVIVVLKTPVE [SMD2], the protein stability index is reported as 2.42 ± 0.093. LFPEQQTKEIKTERVED [RPL6B] showed a protein stability index of 3.29 ± 0.079. In the case of LFSSRRLQAKRLKDVEW [RMP1], the protein stability index is reported as 2.79 ± 0.059. Sequence LGGPITKESQPTIEEDL [FAS2] has a protein stability index of 3.19 ± 0.15. Work on LGILKKKRFDEFMAGFN [SMC4] yielded a protein stability index of 2.15 ± 0.13. LGKAQNWAKFTATASLG [RPN2] gave a protein stability index of 2.56 ± 0.059. For LGKKKNVKEEETVAKSK [RPS8A], the protein stability index was 3.31 ± 0.05. Work on LGKTIQTISLLTYLYEM [SNF2] yielded a protein stability index of 2.5 ± 0.087. Work on LGLAKSVHHARVLITQR [RPS9A] yielded a protein stability index of 2.86 ± 0.15. LGLFIHKISFSGTKSEV [YJL039C/NUP192] showed a protein stability index of 2.14 ± 0.055. Sequence LGNIASSFYINHASMDV [BRR2] has a protein stability index of 2.67 ± 0.12. In the case of LGPLFKKIVDDTIMENP [IRR1], the protein stability index is reported as 2.88 ± 0.066. For LGQERATDLAGPANNPN [PRP8], the protein stability index was 3.04 ± 0.068. LGQYVQAHTLYNSVRPF [PRE10] gave a protein stability index of 2.87 ± 0.099. LGSGSLAAMAVLESHWK [PUP1] gave a protein stability index of 3.27 ± 0.14. In the case of LGSLTVEDYLSSVTSDS [RPC82], the protein stability index is reported as 3.02 ± 0.076. LGSQSKSDEGGSYLCTS [YOR098C/NUP1] gave a protein stability index of 2.98 ± 0.07. LGSSEAENLLQLKTGLA [YGL172W/NUP49] showed a protein stability index of 3.29 ± 0.18. In the case of LGVTYSSPTLATGFGAH [PRE4], the protein stability index is reported as 2.29 ± 0.12. LGYTHIAINFTVNHSEK [RPP1] showed a protein stability index of 1.25 ± 0.036. LHCCIQLLMGDIPELSF [RPN3] showed a protein stability index of 1.73 ± 0.052. LHDTQIEGKLHMATALQ [RPN10] showed a protein stability index of 2.37 ± 0.2. LHEKYLTEGGSILEEKI [SMC1] showed a protein stability index of 3.24 ± 0.1. Work on LHNFESVAPTKQREIVK [NUT1] yielded a protein stability index of 2.55 ± 0.065. Sequence LHNIWSNGLLSIVLLLL [YML103C/NUP188] has a protein stability index of 1.34 ± 0.059. For LHNLNEYQIVYYNPQAG [RGR1], the protein stability index was 2.44 ± 0.15. LHYLKKFKHIDDKYGRK [SRP72] showed a protein stability index of 2.88 ± 0.057. LIERYYPKLTLDFQTNK [RPS17A] gave a protein stability index of 3.01 ± 0.061. LIIDDPSKGQSLSKISQ [RPP1] gave a protein stability index of 2.81 ± 0.063. Sequence LIIDGQIIFGVVEKKTV [RPO21] has a protein stability index of 1.38 ± 0.065. For LIIIEKKQKLIEEQDKK [ITC1], the protein stability index was 2.9 ± 0.21. With LIIQKIPSLQNNIEENL [ECM29] the protein stability index was 2.88 ± 0.066. Work on LILGLNTSIAQFDIQSP [YML103C/NUP188] yielded a protein stability index of 1.81 ± 0.045. LINGHRAPQQSVLQLFQ [SMC2] gave a protein stability index of 2.48 ± 0.069. In the case of LIPEDKRDQYLKSASKE [RPL28], the protein stability index is reported as 3.1 ± 0.19. Sequence LIPFIVKQVLLSVEIGV [NUT1] has a protein stability index of 1.6 ± 0.031. Work on LIRNVGTNTYRLGEWSK [POP1] yielded a protein stability index of 1.29 ± 0.22. Work on LISDQLLEFFELVFSKG [YML103C/NUP188] yielded a protein stability index of 2.71 ± 0.11. For LITVMEKSPDPTIRSNA [YCS4], the protein stability index was 2.48 ± 0.051. Work on LIYVNPFMLQWGIPLIK [FAS1] yielded a protein stability index of 1.4 ± 0.099. Sequence LKAVTVEAGMIALRNGQ [RPT5] has a protein stability index of 2.9 ± 0.16. In the case of LKDLNLTVSIKIALMNI [RGR1], the protein stability index is reported as 1.66 ± 0.066. For LKELRIDNSPQAISYLH [GRR1], the protein stability index was 2.55 ± 0.051. Sequence LKESVEGEFNGDTIELA [PRE8] has a protein stability index of 3.48 ± 0.11. Work on LKGIQEFGADWYKVAKN [SWI3] yielded a protein stability index of 3.34 ± 0.072. LKISGEEESLHVFQYAN [RPC37] gave a protein stability index of 2.21 ± 0.13. In the case of LKLEYYNLLVKISLHKR [RPN5], the protein stability index is reported as 1.28 ± 0.26. LKNEGIDLDHKRFLILQ [SMC4] showed a protein stability index of 2.35 ± 0.13. Sequence LKNKREIYRISFQLSKI [RPS9B] has a protein stability index of 3.66 ± 0.16. In the case of LKNPEIFQRVGIKPPKG [RPT4], the protein stability index is reported as 2.18 ± 0.22. Sequence LKNTMQYLTNFSRFRDQ [RPB4] has a protein stability index of 2.97 ± 0.17. For LKPSMSVALHRHSNALV [RPT3], the protein stability index was 2.41 ± 0.15. In the case of LKQEIDRGLSIKLNGST [SNU114], the protein stability index is reported as 3.17 ± 0.11. LKQNAIRARIPFYGSYT [SRP54] gave a protein stability index of 2.8 ± 0.063. With LKRLAWQYIVIDEAHRI [ISW2] the protein stability index was 1.78 ± 0.1. In the case of LKRNSWPKTRGVAMNPV [RPL2A], the protein stability index is reported as 3.32 ± 0.2. In the case of LKSAIRDEIAKNTELSY [RPN12], the protein stability index is reported as 2.16 ± 0.1. With LKTADNRDRSFQLLEPL [PGD1] the protein stability index was 3.38 ± 0.086. In the case of LKTDGVRAVSITSFGFG [FAS2], the protein stability index is reported as 2.15 ± 0.099. For LKTLVQGPRSYFLDVKC [RPS27A], the protein stability index was 3.21 ± 0.13. Work on LKTNGKQNNKDFRTRYI [MTW1] yielded a protein stability index of 2.84 ± 0.065. Work on LKYLSVEEVIKLVRDSF [PRE7] yielded a protein stability index of 3.27 ± 0.11.
